{"source": "patent US20190241648A1", "about": "(STATEN BIOTECHNOLOGY B V, published 2019)", "binders": {"B1": {"name": "anti-ApoC3 antibody 6A6 (antibody, V domains shown)", "VH": "EVQLVESGGGLVQPGGSLRLSCAASGFTFSSYAGRWVRQVPGKGLEWVSSINAGGGSTSYADSVKGRFTISRDNAKNTLYLQMNSLKPEDTAKYYCTQNSYRYWGQGTRVAVSS", "VL": "DVVLTQTPGSLSVVPGESASISCKASQSLIHTDGKTYLYWLLQKPGQRPQLLIYQVSSHESGVPDRFTGSGSGTDFTLKISGVKAEDAGVYYCAQATYNPRTFGQGTKLEIK", "notes": "it was detected with goat anti-human IgG (Fc); also called mAb 6A6; llama antibody 6A6"}}, "assay_in_all_cases": "peptide microarray", "key": {"ApoC3 peptide … E70I": {"biological_target": "T1, ApoC3 peptide … E70I (human, not fully specified (bridges); also: cyclic constrained)", "T1 peptide": "DKFSEFWDLDPIV", "in_short": "(§1)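 ApoC3 peptide microarrays incubated with antibody samples and then stained with goat anti-human IgG (Fc) DyLight680 plus anti-HA DyLight800 control antibody. Scanned at intensity 7/7 (red/green); a secondary-only prestain checked for background, and framing HA peptides served as quality control.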"}, "ApoC3 peptide … D68R": {"biological_target": "T2, ApoC3 peptide … D68R (human, cyclic constrained)", "T2 peptide": "DKFSEFWDLRPEV", "in_short": "as §1"}, "ApoC3 peptide … V71T": {"biological_target": "ApoC3 peptide … V71T (human, cyclic constrained)", "in_short": "as §1"}, "ApoC3 peptide … F61K": {"biological_target": "T3, ApoC3 peptide … F61K (human, not fully specified (bridges); also: cyclic constrained)", "T3 peptide": "DKKSEFWDLDPEV", "in_short": "as §1"}, "ApoC3 peptide … K60E": {"biological_target": "T4, ApoC3 peptide … K60E (human, not fully specified (bridges); also: cyclic constrained)", "T4 peptide": "DEFSEFWDLDPEV", "in_short": "as §1"}, "ApoC3 peptide … K60D": {"biological_target": "T5, ApoC3 peptide … K60D (human, not fully specified (bridges); also: cyclic constrained)", "T5 peptide": "DDFSEFWDLDPEV", "in_short": "as §1"}, "ApoC3 peptide … K60V": {"biological_target": "T6, ApoC3 peptide … K60V (human, not fully specified (bridges); also: cyclic constrained)", "T6 peptide": "DVFSEFWDLDPEV", "in_short": "as §1"}, "ApoC3 peptide … P69R": {"biological_target": "ApoC3 peptide … P69R (human, cyclic constrained)", "in_short": "as §1"}, "ApoC3 peptide … D66C": {"biological_target": "T7, ApoC3 peptide … D66C (human, not fully specified (bridges); also: cyclic constrained)", "T7 peptide": "DKFSEFWCLDPEV", "in_short": "as §1"}, "ApoC3 peptide … F64Q": {"biological_target": "T8, ApoC3 peptide … F64Q (human, not fully specified (bridges); also: cyclic constrained)", "T8 peptide": "DKFSEQWDLDPEV", "in_short": "as §1"}, "ApoC3 peptide … K60N": {"biological_target": "T9, ApoC3 peptide … K60N (human, not fully specified (bridges); also: cyclic constrained)", "T9 peptide": "DNFSEFWDLDPEV", "in_short": "as §1"}, "ApoC3 peptide … L67T": {"biological_target": "T10, ApoC3 peptide … L67T (human, not fully specified (bridges); also: cyclic constrained)", "T10 peptide": "DKFSEFWDTDPEV", "in_short": "as §1"}, "ApoC3 peptide … F64L": {"biological_target": "T11, ApoC3 peptide … F64L (human, not fully specified (bridges); also: cyclic constrained)", "T11 peptide": "DKFSELWDLDPEV", "in_short": "as §1"}, "ApoC3 peptide … K60Q": {"biological_target": "T12, ApoC3 peptide … K60Q (human, not fully specified (bridges); also: cyclic constrained)", "T12 peptide": "DQFSEFWDLDPEV", "in_short": "as §1"}, "ApoC3 peptide … F64H": {"biological_target": "T13, ApoC3 peptide … F64H (human, not fully specified (bridges); also: cyclic constrained)", "T13 peptide": "DKFSEHWDLDPEV", "in_short": "as §1"}, "ApoC3 peptide … F61S": {"biological_target": "T14, ApoC3 peptide … F61S (human, not fully specified (bridges); also: cyclic constrained)", "T14 peptide": "DKSSEFWDLDPEV", "in_short": "as §1"}, "ApoC3 peptide … E70T": {"biological_target": "T15, ApoC3 peptide … E70T (human, cyclic constrained)", "T15 peptide": "DKFSEFWDLDPTV", "in_short": "as §1"}, "ApoC3 peptide … D59I": {"biological_target": "T16, ApoC3 peptide … D59I (human, cyclic constrained)", "T16 peptide": "IKFSEFWDLDPEV", "in_short": "as §1"}, "ApoC3 peptide … V71D": {"biological_target": "ApoC3 peptide … V71D (human, cyclic constrained)", "in_short": "as §1"}, "ApoC3 peptide … D66T": {"biological_target": "T17, ApoC3 peptide … D66T (human, not fully specified (bridges); also: cyclic constrained)", "T17 peptide": "DKFSEFWTLDPEV", "in_short": "as §1"}, "ApoC3 peptide … S62D": {"biological_target": "ApoC3 peptide … S62D (human, cyclic constrained)", "in_short": "as §1"}, "ApoC3 peptide … F64E": {"biological_target": "T18, ApoC3 peptide … F64E (human, not fully specified (bridges); also: cyclic constrained)", "T18 peptide": "DKFSEEWDLDPEV", "in_short": "as §1"}, "ApoC3 peptide … W65S": {"biological_target": "T19, ApoC3 peptide … W65S (human, not fully specified (bridges); also: cyclic constrained, ring type and places not given here)", "T19 peptide": "DKFSEFSDLDPEV", "in_short": "as §1"}, "ApoC3 peptide … P69G": {"biological_target": "T20, ApoC3 peptide … P69G (human, not fully specified (bridges); also: cyclic constrained)", "T20 peptide": "DKFSEFWDLDGEV", "in_short": "as §1"}, "ApoC3 peptide … S62T": {"biological_target": "ApoC3 peptide … S62T (human, cyclic constrained)", "in_short": "as §1"}, "ApoC3 peptide … K60F": {"biological_target": "T21, ApoC3 peptide … K60F (human, not fully specified (bridges); also: cyclic constrained)", "T21 peptide": "DFFSEFWDLDPEV", "in_short": "as §1"}, "ApoC3 peptide … D66W": {"biological_target": "T22, ApoC3 peptide … D66W (human, not fully specified (bridges); also: cyclic constrained)", "T22 peptide": "DKFSEFWWLDPEV", "in_short": "as §1"}, "ApoC3 peptide … K60C": {"biological_target": "T23, ApoC3 peptide … K60C (human, not fully specified (bridges); also: cyclic constrained)", "T23 peptide": "DCFSEFWDLDPEV", "in_short": "as §1"}, "ApoC3 peptide … F61C": {"biological_target": "T24, ApoC3 peptide … F61C (human, cyclic constrained)", "T24 peptide": "DKCSEFWDLDPEV", "in_short": "as §1"}, "ApoC3 peptide … W65C": {"biological_target": "ApoC3 peptide … W65C (human, cyclic constrained)", "in_short": "as §1"}, "ApoC3 peptide … W65G": {"biological_target": "T25, ApoC3 peptide … W65G (human, not fully specified (bridges); also: cyclic constrained, ring type and places not given here)", "T25 peptide": "DKFSEFGDLDPEV", "in_short": "as §1"}, "ApoC3 peptide … F61P": {"biological_target": "T26, ApoC3 peptide … F61P (human, not fully specified (bridges); also: cyclic constrained)", "T26 peptide": "DKPSEFWDLDPEV", "in_short": "as §1"}, "ApoC3 peptide … D66I": {"biological_target": "T27, ApoC3 peptide … D66I (human, not fully specified (bridges); also: cyclic constrained)", "T27 peptide": "DKFSEFWILDPEV", "in_short": "as §1"}, "ApoC3 peptide … K60A": {"biological_target": "T28, ApoC3 peptide … K60A (human, not fully specified (bridges); also: cyclic constrained)", "T28 peptide": "DAFSEFWDLDPEV", "in_short": "as §1"}, "ApoC3 peptide … E70H": {"biological_target": "T29, ApoC3 peptide … E70H (human, not fully specified (bridges); also: cyclic constrained)", "T29 peptide": "DKFSEFWDLDPHV", "in_short": "as §1"}}, "note": "Ends that are not written are not given here.", "data": [{"binder": "B1", "values": [{"measurement": "% of binding to wild-type peptide", "setting": "ApoC3 peptide … E70I", "result": 1.59, "unit": "%"}, {"measurement": "% of binding to wild-type peptide", "setting": "ApoC3 peptide … D68R", "result": 0.66, "unit": "%"}, {"measurement": "% of binding to wild-type peptide", "setting": "ApoC3 peptide … V71T", "result": 94.5, "unit": "%"}, {"measurement": "% of binding to wild-type peptide", "setting": "ApoC3 peptide … F61K", "result": 37.2, "unit": "%"}, {"measurement": "% of binding to wild-type peptide", "setting": "ApoC3 peptide … K60E", "result": 223, "unit": "%"}, {"measurement": "% of binding to wild-type peptide", "setting": "ApoC3 peptide … K60D", "result": 151, "unit": "%"}, {"measurement": "% of binding to wild-type peptide", "setting": "ApoC3 peptide … K60V", "result": 106, "unit": "%"}, {"measurement": "% of binding to wild-type peptide", "setting": "ApoC3 peptide … P69R", "result": 17.4, "unit": "%"}, {"measurement": "% of binding to wild-type peptide", "setting": "ApoC3 peptide … D66C", "result": 7.92, "unit": "%"}, {"measurement": "% of binding to wild-type peptide", "setting": "ApoC3 peptide … F64Q", "result": 133, "unit": "%"}, {"measurement": "% of binding to wild-type peptide", "setting": "ApoC3 peptide … K60N", "result": 139, "unit": "%"}, {"measurement": "% of binding to wild-type peptide", "setting": "ApoC3 peptide … L67T", "result": 100, "unit": "%"}, {"measurement": "% of binding to wild-type peptide", "setting": "ApoC3 peptide … F64L", "result": 89.7, "unit": "%"}, {"measurement": "% of binding to wild-type peptide", "setting": "ApoC3 peptide … K60Q", "result": 140, "unit": "%"}, {"measurement": "% of binding to wild-type peptide", "setting": "ApoC3 peptide … F64H", "result": 107, "unit": "%"}, {"measurement": "% of binding to wild-type peptide", "setting": "ApoC3 peptide … F61S", "result": 39.2, "unit": "%"}, {"measurement": "% of binding to wild-type peptide", "setting": "ApoC3 peptide … E70T", "result": 1.55, "unit": "%"}, {"measurement": "% of binding to wild-type peptide", "setting": "ApoC3 peptide … D59I", "result": 103, "unit": "%"}, {"measurement": "% of binding to wild-type peptide", "setting": "ApoC3 peptide … V71D", "result": 223, "unit": "%"}, {"measurement": "% of binding to wild-type peptide", "setting": "ApoC3 peptide … D66T", "result": 0, "unit": "%"}, {"measurement": "% of binding to wild-type peptide", "setting": "ApoC3 peptide … S62D", "result": 35, "unit": "%"}, {"measurement": "% of binding to wild-type peptide", "setting": "ApoC3 peptide … F64E", "result": 236, "unit": "%"}, {"measurement": "% of binding to wild-type peptide", "setting": "ApoC3 peptide … W65S", "result": 132, "unit": "%"}, {"measurement": "% of binding to wild-type peptide", "setting": "ApoC3 peptide … P69G", "result": 16.3, "unit": "%"}, {"measurement": "% of binding to wild-type peptide", "setting": "ApoC3 peptide … S62T", "result": 139, "unit": "%"}, {"measurement": "% of binding to wild-type peptide", "setting": "ApoC3 peptide … K60F", "result": 83.7, "unit": "%"}, {"measurement": "% of binding to wild-type peptide", "setting": "ApoC3 peptide … D66W", "result": 0, "unit": "%"}, {"measurement": "% of binding to wild-type peptide", "setting": "ApoC3 peptide … K60C", "result": 84, "unit": "%"}, {"measurement": "% of binding to wild-type peptide", "setting": "ApoC3 peptide … F61C", "result": 20.6, "unit": "%"}, {"measurement": "% of binding to wild-type peptide", "setting": "ApoC3 peptide … W65C", "result": 16, "unit": "%"}, {"measurement": "% of binding to wild-type peptide", "setting": "ApoC3 peptide … W65G", "result": 49.5, "unit": "%"}, {"measurement": "% of binding to wild-type peptide", "setting": "ApoC3 peptide … F61P", "result": 79, "unit": "%"}, {"measurement": "% of binding to wild-type peptide", "setting": "ApoC3 peptide … D66I", "result": 0, "unit": "%"}, {"measurement": "% of binding to wild-type peptide", "setting": "ApoC3 peptide … K60A", "result": 120, "unit": "%"}, {"measurement": "% of binding to wild-type peptide", "setting": "ApoC3 peptide … E70H", "result": 0.03, "unit": "%"}]}]}
